Test results as given in US12077763B2, “RNA-based control of powdery mildew” (Greenlight Biosciences, Inc., priority 2021, dated 2024).

B1: GS3928 (nucleic acid)
sense: UUGAAGUGGUUAAAAAACAUGUUGAGGAAACAGAAUGGGAAGAAGAACCUUCCAAGAAUGGAAGACUUGAUAUUGAUAUAAUAACCGCGGAAGCAAUGACACUUGCUCAUCAAAUUGCAAGUGGUGAGAAGACUAAAUAUGAUCUCAUCGAUGAAGGUUGGAAUAAAAAUUCAUUCAAGGAUCGCGAUGGCCUUCCUGAUUGGUUUCUGGAUGAUGAGAGUAAACAUGAUAAACCUCAUAGACCUAUCAGUGCUGCCGCUGCAAAUGCUAUAAAAGAAAAGCUGCGAGCCCUGAAUGCUCGACCAAUCAAAAAAGUACGUGAGGCUAAGAGUCGGAAAAAAUUCAAAGCUGCCCAACGACUUGAAAAACUCCGAAAAAAAU
antisense: AUUUUUUUCGGAGUUUUUCAAGUCGUUGGGCAGCUUUGAAUUUUUUCCGACUCUUAGCCUCACGUACUUUUUUGAUUGGUCGAGCAUUCAGGGCUCGCAGCUUUUCUUUUAUAGCAUUUGCAGCGGCAGCACUGAUAGGUCUAUGAGGUUUAUCAUGUUUACUCUCAUCAUCCAGAAACCAAUCAGGAAGGCCAUCGCGAUCCUUGAAUGAAUUUUUAUUCCAACCUUCAUCGAUGAGAUCAUAUUUAGUCUUCUCACCACUUGCAAUUUGAUGAGCAAGUGUCAUUGCUUCCGCGGUUAUUAUAUCAAUAUCAAGUCUUCCAUUCUUGGAAGGUUCUUCUUCCCAUUCUGUUUCCUCAACAUGUUUUUUAACCACUUCAA
B2: GS3934 (nucleic acid)
sense: UCUUCUUCAGUGGUAUGUGCAAGAGAUUGACGUCUAGAUGAACGUGUUGAUGGUGCAGUUACUACAGCAGUAGCUUCAACCGAUUUUCGACUCACUUUUCGCUUGUUUGAAACAGACGAAACUAAAGAAUUUGUGGAACUAGAUUUAGGUUUACGAGUAGUGGACCGUCCCUUACUUGUAUAGACUCUCUUUUUAAGUGUAGAAUCAUUCAAUGGCUGUAAAAAUGAAACUAAAUCUCCACAAAUAGUAGUAGGUGCAUCUGCUGAUAAUGCUUCAGGUAAAUCUAAUCUAGAUCCAAUUUCUGAUGUACUAAGUGAUAUAUUUGAAGAGGUAAUAUUACUUUGUAUUUCAGGUGUCUUUGAGGUCAUCUUUGAUGAAAUUACCAUUAGUUUUU
antisense: AAAAACUAAUGGUAAUUUCAUCAAAGAUGACCUCAAAGACACCUGAAAUACAAAGUAAUAUUACCUCUUCAAAUAUAUCACUUAGUACAUCAGAAAUUGGAUCUAGAUUAGAUUUACCUGAAGCAUUAUCAGCAGAUGCACCUACUACUAUUUGUGGAGAUUUAGUUUCAUUUUUACAGCCAUUGAAUGAUUCUACACUUAAAAAGAGAGUCUAUACAAGUAAGGGACGGUCCACUACUCGUAAACCUAAAUCUAGUUCCACAAAUUCUUUAGUUUCGUCUGUUUCAAACAAGCGAAAAGUGAGUCGAAAAUCGGUUGAAGCUACUGCUGUAGUAACUGCACCAUCAACACGUUCAUCUAGACGUCAAUCUCUUGCACAUACCACUGAAGAAGA
B3: GS3935 (nucleic acid)
sense: CACCGCAGGAAACAACACGAGUAAAAUCAUUUUCUUCAACAACAUCUUCUGCAGCAAAAAAAUUUUCUCGUGCACUCUUAUGGCGGUCAAUUUGUAGAGAUUGCUCAUCGAAGACAAUCUGACCAUCAACGAUGCGAAUUUUAGGACCAACCGGAGGAGCAGACGGCGGUGCGAUUUGGCUAUUUAAACUUGGCUCAGUCUUUCUACUUUCAUUUAGGGUAUAAUUGUCACCACUUUUUCCAUCUAUAUAAUCUUCAAGUUCAGGGUUAUCUCGCUUCAUCCUAGCUUUGAUAGCAUUUUGUUUCAUUCGUGCAAGUCGUCCCAUUAUCUCAUCGUGGUUUCUAGACUUUUUACCAAUACGAAGAUCAUGACAUAAGUCUUGCAUGGUAAUAACAGAA
antisense: UUCUGUUAUUACCAUGCAAGACUUAUGUCAUGAUCUUCGUAUUGGUAAAAAGUCUAGAAACCACGAUGAGAUAAUGGGACGACUUGCACGAAUGAAACAAAAUGCUAUCAAAGCUAGGAUGAAGCGAGAUAACCCUGAACUUGAAGAUUAUAUAGAUGGAAAAAGUGGUGACAAUUAUACCCUAAAUGAAAGUAGAAAGACUGAGCCAAGUUUAAAUAGCCAAAUCGCACCGCCGUCUGCUCCUCCGGUUGGUCCUAAAAUUCGCAUCGUUGAUGGUCAGAUUGUCUUCGAUGAGCAAUCUCUACAAAUUGACCGCCAUAAGAGUGCACGAGAAAAUUUUUUUGCUGCAGAAGAUGUUGUUGAAGAAAAUGAUUUUACUCGUGUUGUUUCCUGCGGUG
B4: GS3937 (nucleic acid)
sense: CAUCUCAACGACUUUGUAGAAUAAAUCAUAGUGAGAUACAGGACUGUGUAGAAAUGCCUCACCACAACAUAAAGAUAAGGCAAUUAAAUUAACUAGAUUGUCAAUCAAAAUAUCAAUAUUUUUUAAGCCCCUCAAGUCUGAUGUGUAUGUGGUGAGAAACCGAACAAGAGAAAGCAGUGAUCUAUAUAGUUCAGACCAGUGAUAUUUCAAUCGUGUCCGUGACCGAGAUAGGUAUGAUAAUAUACUAUAAAUGAUACCAAUGCAAAGAAUAUAUAAAUCAACAUCCAGUCGUCGUCUUAGAUUGUGAUUGAUUCCAUCAAGCAUCGCAUCAAGAAGAAUAGCAGCAAUCGAUCUAUCUCCAUGAACAUAAGGAAGGUACGGAGAUUUUUGUCGACAUA
antisense: UAUGUCGACAAAAAUCUCCGUACCUUCCUUAUGUUCAUGGAGAUAGAUCGAUUGCUGCUAUUCUUCUUGAUGCGAUGCUUGAUGGAAUCAAUCACAAUCUAAGACGACGACUGGAUGUUGAUUUAUAUAUUCUUUGCAUUGGUAUCAUUUAUAGUAUAUUAUCAUACCUAUCUCGGUCACGGACACGAUUGAAAUAUCACUGGUCUGAACUAUAUAGAUCACUGCUUUCUCUUGUUCGGUUUCUCACCACAUACACAUCAGACUUGAGGGGCUUAAAAAAUAUUGAUAUUUUGAUUGACAAUCUAGUUAAUUUAAUUGCCUUAUCUUUAUGUUGUGGUGAGGCAUUUCUACACAGUCCUGUAUCUCACUAUGAUUUAUUCUACAAAGUCGUUGAGAUG
B5: GS3931 (nucleic acid)
sense: AUCAAUUUUUCAUUCUCCCUAAUAGAUUUGAUAUCCCGUUCUUUGAGAUAACUUAAUUCCUCUUUUAUGUCUUUUAGCUUUUUUUCUGCAGUCGCAAUUAGAGUCUCUUUUUCAGCAAUUUGAUCUUGAAGCUCAUUUUCUCUUUUUAAAAACUCUUCACGAUCAUCUUUUUCUAAUGCAAUUGGCGUAGAUGAGCGAUCUAAUAACGUUGAAGCUUCCGAUCUAGAUUCUACCUGCAGCCUAGAAGGAGUUGCAGGUCUUGGUGUUUUUAUUUUAGAAAGAUUAGCAGUAUCUAAAGGUGGUACCCAUUUUUCUUUAGGCACACUAUCUCCAGACCUCCACUGCUGAACUUCUGCAUCAAGUGUCUGUACAUAUUGUUCAAAUGUAGUAA
antisense: UUACUACAUUUGAACAAUAUGUACAGACACUUGAUGCAGAAGUUCAGCAGUGGAGGUCUGGAGAUAGUGUGCCUAAAGAAAAAUGGGUACCACCUUUAGAUACUGCUAAUCUUUCUAAAAUAAAAACACCAAGACCUGCAACUCCUUCUAGGCUGCAGGUAGAAUCUAGAUCGGAAGCUUCAACGUUAUUAGAUCGCUCAUCUACGCCAAUUGCAUUAGAAAAAGAUGAUCGUGAAGAGUUUUUAAAAAGAGAAAAUGAGCUUCAAGAUCAAAUUGCUGAAAAAGAGACUCUAAUUGCGACUGCAGAAAAAAAGCUAAAAGACAUAAAAGAGGAAUUAAGUUAUCUCAAAGAACGGGAUAUCAAAUCUAUUAGGGAGAAUGAAAAAUUGAU
B6: GS3930 (nucleic acid)
sense: CUAACGAGUGAUCGAAGCCCAUCUGAAAGAUUUUGAGUUAUGCUUUUACCAACUAUUACAGUAUCUGAGCUCAGUCGCGAGAGUAAAUCCCCGACUCGAUUGGCGUCAAAGAACUCGGCAUCUUGUACAAAUGUCCUUCGAAAUAAUUUUGAUCGGAGUCUUGAAAUUACUCUUUCUCCAACUAUUCUCAGAAUUAAUAUCCGUCCAUAAUUAGCUACAGCACCUAUUGAUAGUAUAAGCCCAAGAGCCCCGAAAAAUUGUUGAUUAUUAAGUUCAAAAAGUGUGUUUCCUUCUGAGUUUUUGGUUGCAAGGUCUAAUAUUUUACCGAUUGAAAAAGGAAUUGCCAUUGAUAUGGAUGAAGAUACUAAUAAAAAGAAAAAUGCCAAACUGAGC
antisense: GCUCAGUUUGGCAUUUUUCUUUUUAUUAGUAUCUUCAUCCAUAUCAAUGGCAAUUCCUUUUUCAAUCGGUAAAAUAUUAGACCUUGCAACCAAAAACUCAGAAGGAAACACACUUUUUGAACUUAAUAAUCAACAAUUUUUCGGGGCUCUUGGGCUUAUACUAUCAAUAGGUGCUGUAGCUAAUUAUGGACGGAUAUUAAUUCUGAGAAUAGUUGGAGAAAGAGUAAUUUCAAGACUCCGAUCAAAAUUAUUUCGAAGGACAUUUGUACAAGAUGCCGAGUUCUUUGACGCCAAUCGAGUCGGGGAUUUACUCUCGCGACUGAGCUCAGAUACUGUAAUAGUUGGUAAAAGCAUAACUCAAAAUCUUUCAGAUGGGCUUCGAUCACUCGUUAG
B7: GS3929 (nucleic acid)
sense: AUUGUUGAUAAGUUCACUGGAAAUCUCCGUUAUAGGAUCUAUUCCUUCAUUUUGUUUCCGGAGUUUUUCUUCUUGUCGAGCACUCAUUUUGGUAGAGAAUGCCCAACAUGAAAGGCCCAAUUCGCGACAUACUAUGCACACAUCUAGACGAGGCGCAGUUUUGUCUUUCGUUAUCGCAAUUCCAAUGCAACGACGACAUUGUAAGACAAAAUUCUCAUGACCAAUUUUAGUAACCAAGUGAUCUCUGUUACUUCGAGGACCAAGACAAUUUUUGUGGAUUGAAGUUGAGCAUCCUUGACAGUAAAUAAGUUGGCUUGGGCCCUUGUUCGAAUUUCUCUCAUUUCCAAAGCAAACAUCACAAAAUUUAUUAUGAAAACUUCGAAAUAAAUUUU
antisense: AAAAUUUAUUUCGAAGUUUUCAUAAUAAAUUUUGUGAUGUUUGCUUUGGAAAUGAGAGAAAUUCGAACAAGGGCCCAAGCCAACUUAUUUACUGUCAAGGAUGCUCAACUUCAAUCCACAAAAAUUGUCUUGGUCCUCGAAGUAACAGAGAUCACUUGGUUACUAAAAUUGGUCAUGAGAAUUUUGUCUUACAAUGUCGUCGUUGCAUUGGAAUUGCGAUAACGAAAGACAAAACUGCGCCUCGUCUAGAUGUGUGCAUAGUAUGUCGCGAAUUGGGCCUUUCAUGUUGGGCAUUCUCUACCAAAAUGAGUGCUCGACAAGAAGAAAAACUCCGGAAACAAAAUGAAGGAAUAGAUCCUAUAACGGAGAUUUCCAGUGAACUUAUCAACAAU

Each molecule was assayed on E. necator (assay: Leaf disc assay, dry inoculum (settling tower), decrease in disease severity / hyphal growth (Example 2)). Conditions: decrease in disease severity (hyphal growth) relative to untreated control; time point 1 (untreated control hyphal growth ≥50%); value ± SE.

In order of rising “% decrease =/− SE TP1” value:
1. B3  1 ± 5%
2. B6  10 ± 4%
3. B4  12 ± 5%
4. B5  14 ± 4%
5. B1  15 ± 6%
6. B2  31 ± 5%

Same assay, conditions: decrease in disease severity (hyphal growth) relative to untreated control; time point 2; value ± SE

In order of rising “% decrease =/− SE TP2” value:
1. B1  9 ± 7%
2. B2  17 ± 6%
3. B7  19 ± 7%
